From patent US20050265970A1

Target: GST-MKK7 (GST-JNKK2; human JNKK2 in pGEX-2T) (human) (UniProt O14733)
Experiment: in vitro pull-down with purified GST-MKK7 and increasing His6/T7-tagged protein, anti-T7 Western blot; JIP1 under non-saturating conditions

Chain of GST-MKK7 (GST-JNKK2; human JNKK2 in pGEX-2T) (human) (O14733 1-401 Q94H/Q133P): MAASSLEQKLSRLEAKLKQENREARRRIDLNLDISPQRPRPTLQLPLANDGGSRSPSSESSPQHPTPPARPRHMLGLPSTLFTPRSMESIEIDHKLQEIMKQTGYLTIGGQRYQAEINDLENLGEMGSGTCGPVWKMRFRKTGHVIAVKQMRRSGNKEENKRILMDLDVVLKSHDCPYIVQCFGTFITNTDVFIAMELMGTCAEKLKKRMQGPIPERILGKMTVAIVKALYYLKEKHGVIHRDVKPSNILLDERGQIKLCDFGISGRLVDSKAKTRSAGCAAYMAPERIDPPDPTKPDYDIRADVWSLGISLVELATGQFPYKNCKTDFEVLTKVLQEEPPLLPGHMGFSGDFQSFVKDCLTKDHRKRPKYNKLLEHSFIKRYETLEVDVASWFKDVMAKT

- half maximum binding (HMB): > 650 nM
Substance: His6/T7-JIP1 (MKK7-binding domain of JIP1b, pET28)
